Where a chain is given by its changes, count along the chain named. Numbers in names are those of the source.
Tests used:
StCsm6’ (Csm6’) [1] = target: T1, StCsm6’ (Csm6’) (Streptococcus thermophilus, UniProt A0A0A7HFE6); assay: X-ray crystallography, […] Å; assay type: binding; settings: CARF domain site at dimer; occupancy 0.50, mixed with cleaved product
T1 construct: full length, 386 residues, CARF 1-173, 6H 174-239, HEPN 240-386; E. coli C43(DE3), pEV5HisTEV, 8-His tag cut by TEV; symmetrical homodimer
T1 sequence (A0A0A7HFE6 1-386): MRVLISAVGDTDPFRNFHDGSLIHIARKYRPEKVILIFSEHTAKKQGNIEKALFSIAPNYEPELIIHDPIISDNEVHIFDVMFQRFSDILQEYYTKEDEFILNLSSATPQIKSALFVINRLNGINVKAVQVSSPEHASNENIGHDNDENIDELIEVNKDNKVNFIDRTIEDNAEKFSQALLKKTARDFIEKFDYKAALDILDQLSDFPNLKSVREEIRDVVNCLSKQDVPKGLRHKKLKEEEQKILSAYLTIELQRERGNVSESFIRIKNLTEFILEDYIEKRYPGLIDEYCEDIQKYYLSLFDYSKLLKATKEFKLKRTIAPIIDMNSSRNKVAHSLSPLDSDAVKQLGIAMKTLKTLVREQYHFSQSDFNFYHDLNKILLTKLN

StCsm6’ (Csm6’) [2] = target: T1, StCsm6’ (Csm6’); assay: fluorogenic RNase activation assay (RNaseAlert FAM); assay type: biochemical; settings: activator, CARF domain; 1 µM dimer, 125 nM reporter RNA, MES pH 6.0, 30 mM NaCl, 20% glycerol, 45 °C, 30 min
[3] = target: the molecule itself; assay: crystal structure; StCsm6’ co-crystallised with cA6 (1:1.5 molar ratio), 1.96 Å; homodimer
[4] = target: the molecule itself; assay: pulse dipolar EPR spectroscopy (PELDOR/DEER); spin-labelled protein at 50 μM in deuterated buffer with 50% glycerol, frozen solution, 50 K, Q-band, with and without 25 μM cA6; distances between spin labels in the two monomers

Molecule: Nc1ncnc2c1ncn2[C@@H]1O[C@@H]2COP(=O)(O)O[C@H]3[C@@H](O)[C@H](n4cnc5c(N)ncnc54)O[C@@H]3COP(=O)(O)O[C@H]3[C@@H](O)[C@H](n4cnc5c(N)ncnc54)O[C@@H]3COP(=O)(O)O[C@H]3[C@@H](O)[C@H](n4cnc5c(N)ncnc54)O[C@@H]3COP(=O)(O)O[C@H]3[C@@H](O)[C@H](n4cnc5c(N)ncnc54)O[C@@H]3COP(=O)(O)O[C@H]3[C@@H](O)[C@H](n4cnc5c(N)ncnc54)O[C@@H]3COP(=O)(O)O[C@H]2[C@H]1O [cA6, cyclic hexa-adenylate]
- X-ray crystallography, 1.96 Å (StCsm6’ (Csm6’) [1]): electron density consistent with a molecule of cA6 bound to the StCsm6’ dimer
- concentration for full activation (StCsm6’ (Csm6’) [2]): ~ 100 nM

B1: Streptococcus thermophilus Csm6’ (enzyme, UniProt A0A0A7HFE6 1-386, looked up)
chain: T1 sequence (A0A0A7HFE6 1-386)
notes: Csm6’ ribonuclease of the type III-A CRISPR system of Streptococcus thermophilus; 386 residues in the monomer (CARF 1-173, 6H 174-239, HEPN 240-386); Cloned in pEV5HisTEV between NcoI and BamHI; Crystallised with cA6 (8PE3) and without (8PCW); also called StCsm6’; WT StCsm6’; source: E. coli C43 (DE3), purified (HisTrap, TEV cleavage, second IMAC, SEC)
- stoichiometry N [3]: 2

B2: StCsm6’ variant C223A:C292A:N209C:R85C, MTSL spin-labelled (enzyme, Streptococcus thermophilus, UniProt A0A0A7HFE6 1-386, looked up)
chain: T1 sequence (A0A0A7HFE6 1-386) with R85C, N209C, C223A, C292A
modifications: MTSL spin-labelled cysteine side chain R1 at 85 and 209
notes: Csm6’ ribonuclease of Streptococcus thermophilus, 386 residues in the monomer, with four substitutions; parent as m1; Variants were expressed and purified as described for the WT protein; also called R85C/N209C; R85R1/N209R1; source: E. coli C43 (DE3), purified as the WT protein, then spin-labelled with MTSL
- binding result [4]: binds

B3: StCsm6’ variant C223A:C292A:N209C:D88C, MTSL spin-labelled (enzyme, Streptococcus thermophilus, UniProt A0A0A7HFE6 1-386, looked up)
chain: T1 sequence (A0A0A7HFE6 1-386) with D88C, N209C, C223A, C292A
modifications: MTSL spin-labelled cysteine side chain R1 at 88 and 209
notes: Csm6’ ribonuclease of Streptococcus thermophilus, 386 residues in the monomer, with four substitutions; parent as m1; Variants were expressed and purified as described for the WT protein; also called D88C/N209C; D88R1/N209R1; source: E. coli C43 (DE3), purified as the WT protein, then spin-labelled with MTSL
- binding result [4]: binds
